Measurements reported in the supplement of paper PMC10567573.
± gives the standard deviation.

Test: protein stability index of a GFP-peptide fusion (GPS, HEK-293T) (PSI 1-6); higher = more stable
[1] = treatment: DMSO, c terminus: a fixed tail appended
[2] = treatment: MLN4924 1 uM, 8 h, c terminus: a fixed tail appended
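Also: 24-mer peptide tiles fused after GFP, lentivirally expressed, FACS-sorted into six equal bins by GFP/DsRed ratio, decoded by Illumina sequencing, PSI is the read-weighted mean bin number.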

VLVAETTMARIRRVYVSGLMKGGA [APMAP] showed a protein stability index [1] of 2.17 ± 0.27 and a protein stability index [2] of 2.1 ± 0.28.

HDFLSDLFSDDYGGKNCKKPAEYG [CEBPB] showed a protein stability index [1] of 3.83 ± 0.16 and a protein stability index [2] of 3.8 ± 0.17.

Work on HPIEEAAEEHREKLLKQMRILWKK [TRIM43] yielded a protein stability index [1] of 3.45 ± 0.39 and a protein stability index [2] of 3.7 ± 0.58.

ARLTYSIVGNQVQGAPASSFVYVN [PCDHGC5] gave a protein stability index [1] of 2.38 ± 0.39 and a protein stability index [2] of 2.19 ± 0.26.

GNQESKLIILASGGPQALVNIMRT [CTNNB1] showed a protein stability index [1] of 2.21 ± 0.57 and a protein stability index [2] of 2.26 ± 0.69.

KLKDLSTVTSLQVPVLKPMDLMVE [PPP2R2C] gave a protein stability index [1] of 3.33 ± 0.31 and a protein stability index [2] of 3.43 ± 0.27.

GYDGLNILNSVEKYDPHTGHWTNV [KLHL12] gave a protein stability index [1] of 2.75 ± 0.42 and a protein stability index [2] of 3.05 ± 0.19.

With VEASCSVCLEYLKEPVIIECGHNF [TRIM39] the protein stability index [1] was 2.07 ± 0.39 and the protein stability index [2] was 2.25 ± 0.21.

For FNYELVKSWLNGFRPKDQTSVGMS [SLC25A39], the protein stability index [1] was 1.95 ± 0.32 and the protein stability index [2] was 1.97 ± 0.3.

Sequence EEGDEQQRLLNTPRRKKLKSTSKY [GMCL1] has a protein stability index [1] of 4.75 ± 0.12 and a protein stability index [2] of 4.9 ± 0.39.

In the case of SPEWDTVTPEAKNLINQMLTINPA [CAMK2B], the protein stability index [1] is reported as 3.84 ± 0.18 and the protein stability index [2] is reported as 3.86 ± 0.21.

In the case of QNQHHSASLQASIFSGAASLGYGT [APBB1IP], the protein stability index [1] is reported as 3.19 ± 0.16 and the protein stability index [2] is reported as 3.15 ± 0.17.

For FQARLSGNNLHNASIPEHLAYGSV [POMT2], the protein stability index [1] was 2.63 ± 0.21 and the protein stability index [2] was 2.95 ± 0.29.

ESSLGSESEEEEEFYDADEETQMI [SLC22A15] gave a protein stability index [1] of 5.05 ± 0.24 and a protein stability index [2] of 4.88 ± 0.3.

DHEHEEADLELSLPECLEYEEEFD [GNAS] gave a protein stability index [1] of 5.55 ± 0.46 and a protein stability index [2] of 5.53 ± 0.22.

In the case of LEGVIDRYQQSKAAALKCQLCEKA [TRIM9], the protein stability index [1] is reported as 3.45 ± 0.32 and the protein stability index [2] is reported as 3.78 ± 0.34.

Work on LVDMDMADYSAALDPAYTTLEFEN [HNF4A] yielded a protein stability index [1] of 4.24 ± 0.19 and a protein stability index [2] of 4.35 ± 0.054.

With KVWDQVKASNPDLKLWEIGKIIGG [SMARCE1] the protein stability index [1] was 2.45 ± 0.32 and the protein stability index [2] was 2.36 ± 0.23.

ILELVVLEQFVAILPKELQTWVRD [ZNF24] showed a protein stability index [1] of 2.35 ± 0.54 and a protein stability index [2] of 2.45 ± 0.46.

YLATAKVLITVEDVNDNSPELTIT [PCDHGA10] gave a protein stability index [1] of 2.49 ± 0.2 and a protein stability index [2] of 2.44 ± 0.22.

Work on QNFKNRESYPEDTVFYIPEDHKPG [DLC1] yielded a protein stability index [1] of 4.63 ± 0.087 and a protein stability index [2] of 4.53 ± 0.44.

With VETAFERLQQELEQQRCLLLARLR [TRIM15] the protein stability index [1] was 2.81 ± 0.33 and the protein stability index [2] was 2.86 ± 0.3.

MLEKMDLKEFDLDALLGIDDLETM [ATF4] showed a protein stability index [1] of 3.85 ± 0.14 and a protein stability index [2] of 3.87 ± 0.26.

In the case of LIFSVQPKSLVRLSLEAVICFKEM [KLHDC2], the protein stability index [1] is reported as 1.88 ± 0.17 and the protein stability index [2] is reported as 2.04 ± 0.31.

IFLFQDILVLTRPVTRNERHSYQV [NET1] gave a protein stability index [1] of 2.58 ± 0.28 and a protein stability index [2] of 2.27 ± 0.27.

In the case of QPLRPWAGGDVPHKTHQAPASASS [DYRK1B], the protein stability index [1] is reported as 4.54 ± 0.17 and the protein stability index [2] is reported as 4.58 ± 0.26.

Sequence NGPDCGYGSFHQQYWLDGKIIAVG [ATE1] has a protein stability index [1] of 2.35 ± 0.42 and a protein stability index [2] of 2.26 ± 0.26.

In the case of VLLMAICIVSPDRPGVQDAALIEA [VDR], the protein stability index [1] is reported as 2.8 ± 0.33 and the protein stability index [2] is reported as 2.77 ± 0.66.

DHYQRVKREREKEDIALNKHRSRR [RHOBTB1] gave a protein stability index [1] of 4.23 ± 0.25 and a protein stability index [2] of 4.38 ± 0.21.

For AGSHQYPGRGVYLLKFDNSYSLWR [ACBD3], the protein stability index [1] was 2.43 ± 0.25 and the protein stability index [2] was 2.22 ± 0.29.

Sequence HQDVDLVCINLPPPLTRQIAVKTL [GFOD1] has a protein stability index [1] of 2.47 ± 0.33 and a protein stability index [2] of 2.53 ± 0.27.

For LKCDLQERLLCPSLLAGTADGSLR [M1AP], the protein stability index [1] was 2.55 ± 0.32 and the protein stability index [2] was 2.5 ± 0.24.

DIWSTACMAFELATGDYLFEPHSG [SRPK2] gave a protein stability index [1] of 3.2 ± 0.24 and a protein stability index [2] of 3.39 ± 0.47.

In the case of VGDLMGSLAYCLACGGGHLLPYFY [DHCR7], the protein stability index [1] is reported as 3.12 ± 0.28 and the protein stability index [2] is reported as 3.47 ± 0.39.

QEAVPLGLGLEDADWTQGLPWRFE [TEX19] gave a protein stability index [1] of 3.34 ± 0.21 and a protein stability index [2] of 3.34 ± 0.3.

QQFQPAGTDQVCVLEWGAEGVAGK [FCHSD1] showed a protein stability index [1] of 4.46 ± 0.24 and a protein stability index [2] of 4.64 ± 0.23.

In the case of RAALTYTSLEITILTSQPGKEVVK [M1AP], the protein stability index [1] is reported as 2.32 ± 0.19 and the protein stability index [2] is reported as 2.49 ± 0.34.

For SAAPGHPQDGSYPRQADHDDHECC [KCNA1], the protein stability index [1] was 5.39 ± 0.4 and the protein stability index [2] was 5.6 ± 0.1.

NGVLLCFYSQEWYARQHCPLKNPT [SOAT1] gave a protein stability index [1] of 2.81 ± 0.31 and a protein stability index [2] of 2.6 ± 0.57.

In the case of DIALNKHRSRRKWCFWNSSPAVA [RHOBTB1], the protein stability index (treatment: DMSO, c terminus: native) is reported as 2.46 ± 1.4 and the protein stability index (treatment: MLN4924 1 uM, 8 h, c terminus: native) is reported as 2.87 ± 1.8.

For HGRARIARLMLESEYRSDIINAKS [ASB7], the protein stability index [1] was 3.05 ± 0.3 and the protein stability index [2] was 3.18 ± 0.23.

Sequence TIGASFMTKTVQYQNELHKFLIWD [RAB22A] has a protein stability index [1] of 2.5 ± 0.45 and a protein stability index [2] of 2.01 ± 0.16.

QELCEGLLEESDGEGEPGQGEGPE [NOP53] showed a protein stability index [1] of 5.6 ± 0.14 and a protein stability index [2] of 5.56 ± 0.11.

For CFSVSMLAGPNDRSDVEKGGKIIM [UFD1], the protein stability index [1] was 2.92 ± 0.48 and the protein stability index [2] was 3.2 ± 0.52.
